Measurements reported in patent US20070148164A1.

How the values were obtained:
[1] = biological target: soluble monomeric hFcRn (human) (UniProt P55899); experiment: Biacore, IgGs immobilized on the same chip, soluble monomeric hFcRn; reference human IgG1
hIgG (human IgG) = experiment: Biacore, hIgG immobilized

fold tighter Kd than hIgG [1] [fold]	Kd (hIgG (human IgG)) [nM]	Substance
2		rabbit IgG1 (antibody)
	2000	soluble monomeric hFcRn (from UniProt P55899 24-297; P61769 21-119) (receptor)
